Test results published in publication PMC8496131, “Accessing Chemo- and Regioselective Benzylic and Aromatic Oxidations by Protein Engineering of an Unspecific Peroxygenase” (ACS Catalysis, 2021).

Substrate: O=[N+]([O-])c1ccc2c(c1)OCO2
Assay: purified protein
Assay type: biochemical, Thermothelomyces thermophilus
Settings: H2O2 as saturating co-substrate, standard deviation <18%

Row | Protein | Km (20 nM enzyme) | kcat (20 nM enzyme) | kcat/Km (20 nM enzyme) | Km (5 nM enzyme) | kcat (5 nM enzyme) | kcat/Km (5 nM enzyme)
1 | MthUPO (Thermothelomyces thermophilus ATCC 42464) (protein, secreted from S. cerevisiae, purified; 245 AA plus C-terminal TwinStrep-GFP11 tag; heme-thiolate) AGFDTWSPPGPYDVRAPCPMLNTLANHGFLPHDGKDITREQTENALFEALHINKTLASFLFDFALTTNPKNTSTFSLNDLGNHNILEHDASLSRADAYFGNVLQFNQTVFDETKTYWEGDTIDLRMAAKARLGRIKTSQATNPTYSMSELGDAFTYGESAAYVVVLGDKESRTVKRSWVEWFFEHEQLPQHLGWKRPAASFEEEDLNSSMEEIEKYTKELEGSNSTSGSQKHRRRLPRRRAHFGF | 386 µM | 7.1 s⁻¹ | 19000 M⁻¹ s⁻¹ |  |  | 
2 | MthUPO (Thermothelomyces thermophilus ATCC 42464; A177F/L76F/S175G) (protein, secreted from S. cerevisiae, purified; 245 AA plus C-terminal TwinStrep-GFP11 tag; heme-thiolate) AGFDTWSPPGPYDVRAPCPMLNTLANHGFLPHDGKDITREQTENALFEALHINKTLASFFFDFALTTNPKNTSTFSLNDLGNHNILEHDASLSRADAYFGNVLQFNQTVFDETKTYWEGDTIDLRMAAKARLGRIKTSQATNPTYSMSELGDAFTYGEGAFYVVVLGDKESRTVKRSWVEWFFEHEQLPQHLGWKRPAASFEEEDLNSSMEEIEKYTKELEGSNSTSGSQKHRRRLPRRRAHFGF | 422 µM | 132 s⁻¹ | 310000 M⁻¹ s⁻¹ |  |  | 
3 | MthUPO (Thermothelomyces thermophilus ATCC 42464; F75Q/L76F/S175G) (protein, secreted from S. cerevisiae, purified; 245 AA plus C-terminal TwinStrep-GFP11 tag; heme-thiolate) AGFDTWSPPGPYDVRAPCPMLNTLANHGFLPHDGKDITREQTENALFEALHINKTLASQFFDFALTTNPKNTSTFSLNDLGNHNILEHDASLSRADAYFGNVLQFNQTVFDETKTYWEGDTIDLRMAAKARLGRIKTSQATNPTYSMSELGDAFTYGEGAAYVVVLGDKESRTVKRSWVEWFFEHEQLPQHLGWKRPAASFEEEDLNSSMEEIEKYTKELEGSNSTSGSQKHRRRLPRRRAHFGF | 303 µM | 47 s⁻¹ | 160000 M⁻¹ s⁻¹ |  |  | 
4 | MthUPO (Thermothelomyces thermophilus ATCC 42464; L76F) (protein, secreted from S. cerevisiae, purified; 245 AA plus C-terminal TwinStrep-GFP11 tag; heme-thiolate) AGFDTWSPPGPYDVRAPCPMLNTLANHGFLPHDGKDITREQTENALFEALHINKTLASFFFDFALTTNPKNTSTFSLNDLGNHNILEHDASLSRADAYFGNVLQFNQTVFDETKTYWEGDTIDLRMAAKARLGRIKTSQATNPTYSMSELGDAFTYGESAAYVVVLGDKESRTVKRSWVEWFFEHEQLPQHLGWKRPAASFEEEDLNSSMEEIEKYTKELEGSNSTSGSQKHRRRLPRRRAHFGF |  |  |  | 110 µM | 2.9 s⁻¹ | 27000 M⁻¹ s⁻¹
5 | MthUPO (Thermothelomyces thermophilus ATCC 42464; F170A/F75Q/L76M/S175G) (protein, secreted from S. cerevisiae, purified; 245 AA plus C-terminal TwinStrep-GFP11 tag; heme-thiolate) AGFDTWSPPGPYDVRAPCPMLNTLANHGFLPHDGKDITREQTENALFEALHINKTLASQMFDFALTTNPKNTSTFSLNDLGNHNILEHDASLSRADAYFGNVLQFNQTVFDETKTYWEGDTIDLRMAAKARLGRIKTSQATNPTYSMSELGDAATYGEGAAYVVVLGDKESRTVKRSWVEWFFEHEQLPQHLGWKRPAASFEEEDLNSSMEEIEKYTKELEGSNSTSGSQKHRRRLPRRRAHFGF | 290 µM | 59.4 s⁻¹ | 210000 M⁻¹ s⁻¹ |  |  | 
